Laboratory results: the supplement of paper PMC7125110
± gives the standard error. For some assays here: Variants at the floor of the assay were thinned out.

B1: glmS ribozyme (parent)
chain: AUAAAAGCGCCAGAACUACAGAAAUGUAGUUGACGAGGAGGAGGUUUAUCGAAUUUUCGGCGGAUGCCUCCAAA

How the values were obtained:
Conditions in all cases: with glucosamine-6-phosphate
glucosamine-6-phosphate [1] = variants of: B1; test: kcat; higher = faster cleavage; RNA array
Procedure, shortened: (§1)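 Tiles bearing barcoded ribozyme variants, transcribed in situ by E. coli RNA polymerase on sequenced MiSeq chips, were imaged over ~14 h at 37 °C using a hybridised Cy3 probe. Glucosamine-6-phosphate was supplied at 40 μM to 10 mM in HEPES/KCl/Mg(OAc)2 buffer. kobs came from one- or two-exponential decay fits to normalised per-tile medians, and weighted Michaelis–Menten fits then provided kcat and KM.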

glucosamine-6-phosphate [2] = variants of: B1; test: KM; higher = weaker cofactor use; RNA array
Procedure, shortened: as §1

glucosamine-6-phosphate [3] = variants of: B1; test: self-cleavage kobs at 40 uM GlcN6P; higher = faster cleavage; RNA array
Procedure, shortened: as §1

glucosamine-6-phosphate [4] = variants of: B1; test: self-cleavage kobs at 160 uM GlcN6P; higher = faster cleavage; RNA array
Procedure, shortened: as §1

glucosamine-6-phosphate [5] = variants of: B1; test: self-cleavage kobs at 640 uM GlcN6P; higher = faster cleavage; RNA array
Procedure, shortened: as §1

glucosamine-6-phosphate [6] = variants of: B1; test: self-cleavage kobs at 2500 uM GlcN6P; higher = faster cleavage; RNA array
Procedure, shortened: as §1

glucosamine-6-phosphate [7] = variants of: B1; test: self-cleavage kobs at 10000 uM GlcN6P; higher = faster cleavage; RNA array
Procedure, shortened: as §1

A14G U65A
kcat (glucosamine-6-phosphate [1]): 0.0124 ± 0.0022 s⁻¹
KM (glucosamine-6-phosphate [2]): 3350 ± 800 µM
self-cleavage kobs at 40 uM GlcN6P (glucosamine-6-phosphate [3]): 0.000169 ± 1.9e-05 s⁻¹
self-cleavage kobs at 160 uM GlcN6P (glucosamine-6-phosphate [4]): 0.000424 ± 8.6e-05 s⁻¹
self-cleavage kobs at 640 uM GlcN6P (glucosamine-6-phosphate [5]): 0.00213 ± 0.00035 s⁻¹
self-cleavage kobs at 2500 uM GlcN6P (glucosamine-6-phosphate [6]): 0.00492 ± 0.00087 s⁻¹
self-cleavage kobs at 10000 uM GlcN6P (glucosamine-6-phosphate [7]): 0.0094 ± 0.00098 s⁻¹

A14C U69A
kcat (glucosamine-6-phosphate [1]): 0.000125 ± 1.5e-05 s⁻¹
KM (glucosamine-6-phosphate [2]): 380 ± 170 µM
self-cleavage kobs at 160 uM GlcN6P (glucosamine-6-phosphate [4]): 2.61e-05 ± 1.2e-05 s⁻¹
self-cleavage kobs at 640 uM GlcN6P (glucosamine-6-phosphate [5]): 9.86e-05 ± 1.9e-05 s⁻¹
self-cleavage kobs at 2500 uM GlcN6P (glucosamine-6-phosphate [6]): 0.000115 ± 1.8e-05 s⁻¹
self-cleavage kobs at 10000 uM GlcN6P (glucosamine-6-phosphate [7]): 0.00011 ± 1.8e-05 s⁻¹

A14C U69C
kcat (glucosamine-6-phosphate [1]): 0.00147 ± 0.00041 s⁻¹
KM (glucosamine-6-phosphate [2]): 2100 ± 820 µM
self-cleavage kobs at 40 uM GlcN6P (glucosamine-6-phosphate [3]): 5.59e-05 ± 1.2e-05 s⁻¹
self-cleavage kobs at 160 uM GlcN6P (glucosamine-6-phosphate [4]): 9.64e-05 ± 1.4e-05 s⁻¹
self-cleavage kobs at 640 uM GlcN6P (glucosamine-6-phosphate [5]): 0.000344 ± 6.1e-05 s⁻¹
self-cleavage kobs at 2500 uM GlcN6P (glucosamine-6-phosphate [6]): 0.000686 ± 0.00015 s⁻¹
self-cleavage kobs at 10000 uM GlcN6P (glucosamine-6-phosphate [7]): 0.00131 ± 0.0002 s⁻¹

A14U C70G
kcat (glucosamine-6-phosphate [1]): 0.000149 ± 3.1e-05 s⁻¹
self-cleavage kobs at 160 uM GlcN6P (glucosamine-6-phosphate [4]): 5.56e-05 ± 7.3e-06 s⁻¹
self-cleavage kobs at 640 uM GlcN6P (glucosamine-6-phosphate [5]): 8.73e-05 ± 9.3e-06 s⁻¹
self-cleavage kobs at 2500 uM GlcN6P (glucosamine-6-phosphate [6]): 0.000147 ± 1.8e-05 s⁻¹

A14U C70A
kcat (glucosamine-6-phosphate [1]): 0.000118 ± 4.4e-06 s⁻¹
KM (glucosamine-6-phosphate [2]): 568 ± 71 µM
self-cleavage kobs at 160 uM GlcN6P (glucosamine-6-phosphate [4]): 2.57e-05 ± 8.7e-06 s⁻¹
self-cleavage kobs at 640 uM GlcN6P (glucosamine-6-phosphate [5]): 6.15e-05 ± 8e-06 s⁻¹
self-cleavage kobs at 2500 uM GlcN6P (glucosamine-6-phosphate [6]): 9.59e-05 ± 1e-05 s⁻¹
self-cleavage kobs at 10000 uM GlcN6P (glucosamine-6-phosphate [7]): 0.000112 ± 1.1e-05 s⁻¹

A14G A15G C50U C68U
kcat (glucosamine-6-phosphate [1]): 5.28e-05 ± 7.8e-06 s⁻¹
self-cleavage kobs at 640 uM GlcN6P (glucosamine-6-phosphate [5]): 7.36e-05 ± 2e-05 s⁻¹
self-cleavage kobs at 2500 uM GlcN6P (glucosamine-6-phosphate [6]): 4.92e-05 ± 1.8e-05 s⁻¹
self-cleavage kobs at 10000 uM GlcN6P (glucosamine-6-phosphate [7]): 4.76e-05 ± 1.2e-05 s⁻¹

A14C U30C A53G
kcat (glucosamine-6-phosphate [1]): 1.63e-05 ± 3.1e-06 s⁻¹

A14G A64G U65A
kcat (glucosamine-6-phosphate [1]): 0.00407 ± 0.0014 s⁻¹
self-cleavage kobs at 40 uM GlcN6P (glucosamine-6-phosphate [3]): 0.000284 ± 0.0001 s⁻¹
self-cleavage kobs at 160 uM GlcN6P (glucosamine-6-phosphate [4]): 0.000621 ± 0.00019 s⁻¹
self-cleavage kobs at 640 uM GlcN6P (glucosamine-6-phosphate [5]): 0.00307 ± 0.0012 s⁻¹
self-cleavage kobs at 2500 uM GlcN6P (glucosamine-6-phosphate [6]): 0.00271 ± 0.0008 s⁻¹
self-cleavage kobs at 10000 uM GlcN6P (glucosamine-6-phosphate [7]): 0.00718 ± 0.0031 s⁻¹

A14G G32C
kcat (glucosamine-6-phosphate [1]): 0.000222 ± 9e-06 s⁻¹
KM (glucosamine-6-phosphate [2]): 1900 ± 190 µM
self-cleavage kobs at 640 uM GlcN6P (glucosamine-6-phosphate [5]): 5.72e-05 ± 1.5e-05 s⁻¹
self-cleavage kobs at 2500 uM GlcN6P (glucosamine-6-phosphate [6]): 0.000115 ± 4.1e-05 s⁻¹
self-cleavage kobs at 10000 uM GlcN6P (glucosamine-6-phosphate [7]): 0.000188 ± 2.8e-05 s⁻¹

A14U A64G
kcat (glucosamine-6-phosphate [1]): 0.00805 ± 0.003 s⁻¹
KM (glucosamine-6-phosphate [2]): 2740 ± 1300 µM
self-cleavage kobs at 40 uM GlcN6P (glucosamine-6-phosphate [3]): 0.000177 ± 2.5e-05 s⁻¹
self-cleavage kobs at 160 uM GlcN6P (glucosamine-6-phosphate [4]): 0.000391 ± 4.2e-05 s⁻¹
self-cleavage kobs at 640 uM GlcN6P (glucosamine-6-phosphate [5]): 0.00143 ± 0.00016 s⁻¹
self-cleavage kobs at 2500 uM GlcN6P (glucosamine-6-phosphate [6]): 0.00635 ± 0.00079 s⁻¹
self-cleavage kobs at 10000 uM GlcN6P (glucosamine-6-phosphate [7]): 0.00568 ± 0.00075 s⁻¹

A14G U31C C71A
kcat (glucosamine-6-phosphate [1]): 0.00296 ± 0.00085 s⁻¹
KM (glucosamine-6-phosphate [2]): 1430 ± 590 µM
self-cleavage kobs at 40 uM GlcN6P (glucosamine-6-phosphate [3]): 0.000143 ± 6.1e-05 s⁻¹
self-cleavage kobs at 160 uM GlcN6P (glucosamine-6-phosphate [4]): 0.000251 ± 7.7e-05 s⁻¹
self-cleavage kobs at 2500 uM GlcN6P (glucosamine-6-phosphate [6]): 0.00227 ± 0.00096 s⁻¹
self-cleavage kobs at 10000 uM GlcN6P (glucosamine-6-phosphate [7]): 0.00241 ± 0.00085 s⁻¹

A14G C16A
kcat (glucosamine-6-phosphate [1]): 0.00509 ± 0.0016 s⁻¹
KM (glucosamine-6-phosphate [2]): 847 ± 380 µM
self-cleavage kobs at 40 uM GlcN6P (glucosamine-6-phosphate [3]): 0.000249 ± 4.2e-05 s⁻¹
self-cleavage kobs at 160 uM GlcN6P (glucosamine-6-phosphate [4]): 0.000745 ± 0.00023 s⁻¹
self-cleavage kobs at 640 uM GlcN6P (glucosamine-6-phosphate [5]): 0.0021 ± 0.00042 s⁻¹
self-cleavage kobs at 2500 uM GlcN6P (glucosamine-6-phosphate [6]): 0.00276 ± 0.00082 s⁻¹
self-cleavage kobs at 10000 uM GlcN6P (glucosamine-6-phosphate [7]): 0.00789 ± 0.0017 s⁻¹

A14U C61A C70A
kcat (glucosamine-6-phosphate [1]): 1.21e-05 ± 3.3e-06 s⁻¹

A14C U31G G40C
kcat (glucosamine-6-phosphate [1]): 0.00179 ± 0.00038 s⁻¹
KM (glucosamine-6-phosphate [2]): 1560 ± 520 µM
self-cleavage kobs at 40 uM GlcN6P (glucosamine-6-phosphate [3]): 5.2e-05 ± 1.1e-05 s⁻¹
self-cleavage kobs at 640 uM GlcN6P (glucosamine-6-phosphate [5]): 0.000477 ± 9.7e-05 s⁻¹
self-cleavage kobs at 2500 uM GlcN6P (glucosamine-6-phosphate [6]): 0.00097 ± 0.00023 s⁻¹
self-cleavage kobs at 10000 uM GlcN6P (glucosamine-6-phosphate [7]): 0.00184 ± 0.00041 s⁻¹

A14U C50A
kcat (glucosamine-6-phosphate [1]): 1.95e-05 ± 4.6e-06 s⁻¹
